This assay deals with MUC1 (polymorphic epithelial mucin) on human tumor cells (human, UniProt P15941 24-1255). As to the kind of experiment: cell binding test with radiolabelled antibody on K562 cells, Scatchard analysis.
Chain of MUC1 (polymorphic epithelial mucin) on human tumor cells (P15941 24-1097, chain 1 of 2): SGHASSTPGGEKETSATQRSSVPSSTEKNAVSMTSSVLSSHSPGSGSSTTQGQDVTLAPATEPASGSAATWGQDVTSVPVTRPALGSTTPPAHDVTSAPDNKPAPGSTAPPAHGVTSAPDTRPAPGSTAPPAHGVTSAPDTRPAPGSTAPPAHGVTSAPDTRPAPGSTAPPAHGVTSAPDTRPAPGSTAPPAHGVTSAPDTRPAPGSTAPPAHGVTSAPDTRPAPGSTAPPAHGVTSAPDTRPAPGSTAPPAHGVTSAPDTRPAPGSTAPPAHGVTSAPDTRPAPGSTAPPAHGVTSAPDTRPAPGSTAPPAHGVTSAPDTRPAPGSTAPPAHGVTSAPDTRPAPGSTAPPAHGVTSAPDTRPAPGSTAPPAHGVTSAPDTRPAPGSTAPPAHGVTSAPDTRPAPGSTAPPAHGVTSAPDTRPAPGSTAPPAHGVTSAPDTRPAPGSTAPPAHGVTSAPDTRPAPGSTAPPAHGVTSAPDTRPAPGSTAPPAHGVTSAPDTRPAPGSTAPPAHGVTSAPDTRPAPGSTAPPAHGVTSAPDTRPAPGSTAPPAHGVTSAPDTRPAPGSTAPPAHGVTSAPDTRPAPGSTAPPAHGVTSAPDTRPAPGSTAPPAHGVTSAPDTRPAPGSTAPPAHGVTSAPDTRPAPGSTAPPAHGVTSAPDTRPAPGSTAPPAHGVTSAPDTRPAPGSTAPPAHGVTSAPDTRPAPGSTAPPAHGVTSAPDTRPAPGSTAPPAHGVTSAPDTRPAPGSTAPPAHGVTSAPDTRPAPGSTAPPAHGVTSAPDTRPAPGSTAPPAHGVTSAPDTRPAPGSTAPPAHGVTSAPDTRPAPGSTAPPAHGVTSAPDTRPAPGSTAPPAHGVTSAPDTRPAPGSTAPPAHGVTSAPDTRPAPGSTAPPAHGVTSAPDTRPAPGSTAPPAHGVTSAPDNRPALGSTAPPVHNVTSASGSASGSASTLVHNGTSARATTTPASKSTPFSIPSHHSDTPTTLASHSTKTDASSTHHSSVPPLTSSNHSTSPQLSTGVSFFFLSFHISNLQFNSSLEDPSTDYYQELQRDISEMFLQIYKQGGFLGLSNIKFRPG
Chain of MUC1 (polymorphic epithelial mucin) on human tumor cells (P15941 1098-1255, chain 2 of 2): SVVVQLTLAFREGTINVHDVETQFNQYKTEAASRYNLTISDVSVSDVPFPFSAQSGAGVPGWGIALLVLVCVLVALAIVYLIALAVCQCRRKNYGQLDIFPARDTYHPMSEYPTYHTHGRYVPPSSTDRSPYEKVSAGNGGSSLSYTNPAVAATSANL

B1: HMFG-1 (antibody, V domains shown)
VH: QVQLVQSGAEVKKPGASVKVSCKASGYTFSAYWIEWVRQAPGKGLEWVGEILPGSNNSRYNEKFKGRVTVTRDTSTNTAYMELSSLRSEDTAVYYCARSYDFAWFAYWGQGTLVTVSS
VL: DIQMTQSPSSLSASVGDRVTITCKSSQSLLYSSNQKIYLAWYQQKPGKAPKLLIYWASTRESGVPSRFSGSGSGTDFTFTISSLQPEDIATYYCQQYYRYPRTFGQGTKVEIKR
For the molecule B1, the Ka came out at 2.7e+08 M⁻¹.

(Values after patent US20150005474A1 (GLYCOTOPE, published 2015).)
